Where two headings read alike, the source gives them in different places.

Experiment [1] deals with T cell receptor of the murine T cell hybridoma DO11.10, specific for OVA 323-339 presented by I-A^d. Briefly: cell-based or functional assay.
For experiment [2] the target is unchanged. Briefly: cell-based or functional assay. The source holds these as a separate data set.
Experiment [3] addresses membrane-bound single-chain I-A^d-OVA (SCT1) on transfected NSO cells (mouse (I-A^d); chicken (OVA peptide)). Briefly: flow cytometry, FITC-conjugated AMS 32.1 (1:100) on T2 (SCT1-transfectant). On the technique in general: Flow cytometry measures light scatter and fluorescence of single cells or particles in a stream.
Experiment [4] has the same target. Nature of the experiment: flow cytometry, FITC-conjugated AMS 32.1 (1:100) on T6 (SCT1-transfectant).
The target is the same in experiment [5]. Nature of the experiment: flow cytometry, FITC-conjugated AMS 32.1 (1:100) on T12 (SCT1-transfectant).
Experiment [6] has as its target soluble single-chain I-A^d-OVA from insect (SF9) cells (SSC1 gene in pMBSC1.2) (mouse (I-A^d); chicken (OVA peptide)). Briefly: I-A^d sandwich ELISA (capture M5/114, detection biotinylated AMS-32.1), cotransfection supernatant 1:2. Background: An ELISA detects its analyte on a solid surface through an enzyme-linked reagent.
Experiment [7] has the same target. Briefly: I-A^d sandwich ELISA (capture M5/114, detection biotinylated AMS-32.1), cotransfection supernatant 1:4.
For experiment [8] the target is unchanged. Nature of the experiment: I-A^d sandwich ELISA (capture M5/114, detection biotinylated AMS-32.1), cotransfection supernatant 1:8.
Experiment [9] shares this target. Nature of the experiment: I-A^d sandwich ELISA (capture M5/114, detection biotinylated AMS-32.1), supernatant of virus clone C6.
Experiment [10] shares this target. Briefly: I-A^d sandwich ELISA (capture M5/114, detection biotinylated AMS-32.1), supernatant of virus clone F8.
Experiment [11] has the same target. Nature of the experiment: I-A^d sandwich ELISA (capture M5/114, detection biotinylated AMS-32.1), cotransfection supernatant undiluted.
Experiment [12] deals with soluble single-chain I-A^d-OVA with EE antibody tag (SCE1) secreted by transfected NSO cells (mouse (I-A^d); chicken (OVA peptide)). Nature of the experiment: I-A^d sandwich ELISA (capture M5/114, detection biotinylated AMS-32.1), undiluted supernatant of E10 (SCE1 transfectant).
For experiment [13] the target is unchanged. Nature of the experiment: I-A^d sandwich ELISA (capture M5/114, detection biotinylated AMS-32.1), undiluted supernatant of E11 (SCE1 transfectant).
Experiment [14] has as its target Neuron Specific Enolase (NSE) in supernatant of SF9 cells infected with a recombinant Baculovirus. Nature of the experiment: I-A^d sandwich ELISA (capture M5/114, detection biotinylated AMS-32.1), NSE baculovirus supernatant as negative control.
The target in experiment [15] is soluble single-chain I-A^d-OVA from insect (SF9) cells (SSC1 gene in pMBSC1.2) (mouse (I-A^d); chicken (OVA peptide)). Briefly: I-A^d sandwich ELISA (capture M5/114, detection biotinylated AMS-32.1), sc I-A^d-OVA from insect cell culture (positive control).
In experiment [16] the target is membrane-bound single-chain I-A^d-OVA (SCT1) on transfected NSO cells (mouse (I-A^d); chicken (OVA peptide)). Nature of the experiment: flow cytometry, FITC-conjugated 10-3.6 control (1:100) on T2 (SCT1-transfectant).
For experiment [17] the target is unchanged. Nature of the experiment: flow cytometry, FITC-conjugated 10-3.6 control (1:100) on T6 (SCT1-transfectant).
For experiment [18] the target is unchanged. Nature of the experiment: flow cytometry, FITC-conjugated 10-3.6 control (1:100) on T12 (SCT1-transfectant).
For experiment [19], the target named is full length I-A^d/OVA 323-339 MHC class II fusion complex (pJRS165.1) expressed on NSO cells (mouse; chicken) (UniProt P04228). Briefly: flow cytometry, FITC-conjugated anti-IA^k control (1:100) on clone NSO/IA^d/OVA.A4.
Sequence of UniProt P04228 (P04228 24-256, chain 1 of 2): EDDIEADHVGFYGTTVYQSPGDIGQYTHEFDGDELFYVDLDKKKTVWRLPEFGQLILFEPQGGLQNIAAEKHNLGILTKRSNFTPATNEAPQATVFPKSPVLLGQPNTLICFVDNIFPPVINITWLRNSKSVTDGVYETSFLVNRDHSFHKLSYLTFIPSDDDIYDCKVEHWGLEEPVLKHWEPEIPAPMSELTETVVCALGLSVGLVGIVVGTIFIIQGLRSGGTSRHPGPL
Sequence of UniProt P04228 (P01921 28-265, chain 2 of 2, further chain): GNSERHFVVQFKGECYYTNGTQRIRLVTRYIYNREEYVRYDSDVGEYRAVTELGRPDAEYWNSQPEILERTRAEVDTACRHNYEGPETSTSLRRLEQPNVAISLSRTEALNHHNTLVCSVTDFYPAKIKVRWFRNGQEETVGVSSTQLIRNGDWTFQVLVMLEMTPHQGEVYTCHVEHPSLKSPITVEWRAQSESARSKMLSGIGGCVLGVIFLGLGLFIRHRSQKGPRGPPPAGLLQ
The target is the same in experiment [20]. Nature of the experiment: flow cytometry, FITC-conjugated anti-IA^k control (1:100) on clone NSO/IA^d/OVA.B2.
For experiment [21] the target is unchanged. Nature of the experiment: flow cytometry, FITC-conjugated anti-IA^k control (1:100) on clone NSO/IA^d/OVA.B4.
Experiment [22] shares this target. Briefly: flow cytometry, FITC-conjugated anti-IA^k control (1:100) on clone NSO/IA^d/OVA.B5.
The target of experiment [23] is murine Class II MHC molecule I-A^d on A20.1-11 cells (mouse) (UniProt P04228). Nature of the experiment: flow cytometry, FITC-conjugated anti-IA^k control (1:100) on A20.1 cells (+ control).

With “OVA 323-339 peptide presented by I-A^d on A20 cells (from UniProt P04228 24-256; P01921 28-265) (peptide-MHC)”, the IL-2 ELISA result (Absorbance); A20+OVA 323-339 peptide (positive control) in [1] turned out to be 1.33 absorbance; in experiment [2] it was 1.45 absorbance.
On to “AMS-32.1 anti-IA^d (Pharmingen part number 06032D) (antibody)”, for which the Mean Fluorescence (mean fluorescence) in experiment [3] came out at 613; in experiment [4] it was 418; in experiment [5], 911. Moreover, the Absorbance (405 nm) was determined as 0.524 absorbance in experiment [6]; 0.305 absorbance in experiment [7]; 0.165 absorbance in experiment [8]; 1.56 absorbance in experiment [9]; 1.45 absorbance in [10]; 0.857 absorbance in [11]. For the same substance, the Absorbance (405 nm) in experiment [12] was 0.781 absorbance; in [13], 0.96 absorbance; in experiment [14], 0.098 absorbance; in experiment [15], 2.44 absorbance.
In experiment [1], “membrane-bound single-chain I-A^d-OVA (SCT1) on transfected NSO cells (peptide-MHC)” had an IL-2 ELISA result (Absorbance); antigen presenting cell T2 (SCT1 transfectant) of 0.758 absorbance and an IL-2 ELISA result (Absorbance); antigen presenting cell T6 (SCT1 transfectant) of 0.307 absorbance. The IL-2 ELISA result (Absorbance); antigen presenting cell T12 (SCT1 transfectant) in [2] was found to be 1.03 absorbance.
“soluble single-chain I-A^d-OVA from insect (SF9) cells (SSC1 gene in pMBSC1.2) (peptide-MHC)”: in [1], the IL-2 concentration in DO11 super; immobilized sc IA^d-OVA 78 ng/well stood at 45 U/ml, the IL-2 concentration in DO11 super; immobilized sc IA^d-OVA 156 ng/well was determined as 100 U/ml, the IL-2 concentration in DO11 super; immobilized sc IA^d-OVA 312 ng/well is 109 U/ml and the IL-2 concentration in DO11 super; immobilized sc IA^d-OVA 625 ng/well worked out at 116 U/ml. Moreover, in experiment [1], the IL-2 concentration in DO11 super; immobilized sc IA^d-OVA 1250 ng/well was 126 U/ml, the IL-2 concentration in DO11 super; immobilized sc IA^d-OVA 2500 ng/well turned out to be 143 U/ml, the IL-2 concentration in DO11 super; immobilized scIA^d-OVA 39 ng/well (extended dilution) turned out to be 0 U/ml and the IL-2 concentration in DO11 super; immobilized scIA^d-OVA 78 ng/well (extended dilution) was 17 U/ml. Further, in experiment [1], the IL-2 concentration in DO11 super; immobilized scIA^d-OVA 156 ng/well (extended dilution) is 24 U/ml, the IL-2 concentration in DO11 super; immobilized scIA^d-OVA 312 ng/well (extended dilution) was found to be 35 U/ml, the IL-2 concentration in DO11 super; immobilized scIA^d-OVA 625 ng/well (extended dilution) was found to be 38 U/ml and the IL-4 concentration in DO11 super; immobilized sc IA^d-OVA 78 ng/well amounted to 7 U/ml. For the same substance, in [1], the IL-4 concentration in DO11 super; immobilized sc IA^d-OVA 156 ng/well came out at 10 U/ml, the IL-4 concentration in DO11 super; immobilized sc IA^d-OVA 312 ng/well was 16 U/ml, the IL-4 concentration in DO11 super; immobilized sc IA^d-OVA 625 ng/well came out at 15 U/ml and the IL-4 concentration in DO11 super; immobilized sc IA^d-OVA 1250 ng/well was determined as 20 U/ml. Further, in [1], the IL-4 concentration in DO11 super; immobilized sc IA^d-OVA 2500 ng/well was found to be 23 U/ml, the IL-r [IL-4] concentration in DO11 super; immobilized scIA^d-OVA 39 ng/well (extended dilution) was found to be 0 U/ml, the IL-r [IL-4] concentration in DO11 super; immobilized scIA^d-OVA 78 ng/well (extended dilution) amounted to 0.8 U/ml and the IL-r [IL-4] concentration in DO11 super; immobilized scIA^d-OVA 156 ng/well (extended dilution) is 0.9 U/ml. In addition, in [1], the IL-r [IL-4] concentration in DO11 super; immobilized scIA^d-OVA 312 ng/well (extended dilution) stood at 1.5 U/ml and the IL-r [IL-4] concentration in DO11 super; immobilized scIA^d-OVA 625 ng/well (extended dilution) turned out to be 2 U/ml.
Turning to “isotype matched FITC-conjugated anti-I-A^k antibody, 10-3.6 (PharMingen)”, the Mean Fluorescence (mean fluorescence) came to 22 in experiment [16], 45.1 in experiment [17] and 45.9 in [18].
Turning to “FITC-conjugated anti-IA^k antibody (Pharmingen), isotype matched irrelevant antibody”, the peak channel fluorescence was found to be 34 peak channel in experiment [19]; 14 peak channel in [20]; 11 peak channel in experiment [21]; 10 peak channel in [22]; 5 peak channel in experiment [23].

Source of the values: patent publication EP0997477B1.
